The binders below were run against HLA-A*02:01 (human) (assay: not given).

Binder	EpiScan MFI
SLPGVFCGV (modifications not checked)	6.42
VMAYITGGV (modifications not checked)	4.53
AMDEFIERYKL (modifications not checked)	2.35
YIDIGNYTV (modifications not checked)	4.42
VMVELVAEL (modifications not checked)	5.34
TLATHGLAAV (modifications not checked)	4.04
VLYQDVNCTEV (modifications not checked)	5.6
VMAYITGGVV (modifications not checked)	4.64

What follows are binders tested against QuickSwitch Quant HLA-A*02:01 Tetramers (PE or APC labeled) (MBL International), A*02:0 (assay: QuickSwitch Quant tetramer control peptide exchange).

Binder	% Peptide Exchange [%]
SLPGVFCGV (modifications not checked)	98
VMAYITGGV (modifications not checked)	99.1
AMDEFIERYKL (modifications not checked)	96.9
YIDIGNYTV (modifications not checked)	97.9
VMVELVAEL (modifications not checked)	98.6
TLATHGLAAV (modifications not checked)	98
VLYQDVNCTEV (modifications not checked)	97.9
VMAYITGGVV (modifications not checked)	99.1

— patent publication US20230035859A1, “COMPOSITIONS AND METHODS FOR EPITOPE SCANNING” (priority 2019, published 2023)
